Here are results for four molecules from publication PMC13199644, “Optimized Quantitative Bacterial Two-Hybrid (qB2H) for Protein–Protein Interaction Assessment” (Computational and Structural Biotechnology Journal, 2026).

B1: ip4_mutG (peptide)
peptide: WARLARRTAGAGGVTLNGAG
notes: also called constant C-terminal scaffold
B2: T32_Kan[209]_top1 (AEEEAARFAALLAALP-GSK-ip4_mutG), purified peptide (designed binder)
peptide: AEEEAARFAALLAALPGSKWARLARRTAGAGGVTLNGAG
notes: designed N-terminal extension; linker; ip4_mutG; source: E. coli BL21(DE3) Star, purified (Ni-NTA, SUMO protease, Resource RPC, Superdex 30); not shown: His6, N-terminal, cleaved; SUMO, N-terminal, cleaved
B3: Kan[348]_top2 (AAAERARFAALLAKLP-GSK-ip4_mutG), purified peptide (designed binder)
peptide: AAAERARFAALLAKLPGSKWARLARRTAGAGGVTLNGAG
notes: as for B2
B4: Kan[348]_top1 (SAAARWAAALAALP-GSK-ip4_mutG), purified peptide (designed binder)
peptide: SAAARWAAALAALPGSKWARLARRTAGAGGVTLNGAG
notes: as for B2

For the experiment, the target named is T1, Recombinant human ASF1AN (residues 1 to 156) (human, UniProt Q9Y294 1-156).
T1 construct: N-terminal domain of human ASF1A, UniProt Q9Y294, residues 1 to 156; Unlabeled for ITC; uniformly 15N- and/or 15N-13C-labeled for NMR; Made from pETM30 with a TEV cleavage site; also called hASF1AN; 15N-ASF1AN; source: E. coli, purified (glutathione agarose, TEV cleavage, Ni-NTA flow-through, Resource Q); not shown: His6, N-terminal, cleaved; GST, N-terminal, cleaved
T1 sequence (Q9Y294 1-156): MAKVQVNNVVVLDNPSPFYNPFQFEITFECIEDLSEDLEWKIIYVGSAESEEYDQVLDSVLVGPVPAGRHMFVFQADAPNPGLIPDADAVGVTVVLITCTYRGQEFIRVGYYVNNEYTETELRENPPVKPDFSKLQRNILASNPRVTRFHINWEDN
The experiment can be described thus: ITC; VP-ITC, 20 °C, 50 mM tris-HCl pH 7.5; binder injected into the ASF1 solution; One Set of Sites model; duplicate. The note with it: both partners purified. A general note: Isothermal titration calorimetry measures the heat released or taken up as one component is titrated into another.
What is called Kd is the concentration at which binding is half-saturated. Turning to B1, the Kd came to 10600 ± 1000 nM. For B2 the value was 152 ± 25 nM; for B3, 581 ± 98 nM. On to B4, for which the Kd is 235 ± 26 nM.
